Patent US20260216326A1 (PROMETHEUS BIOSCIENCES, published 2026)

Molecular target: T1, human TL1A (Fitzgerald #30R-AT070) (human, UniProt O95150 72-251, limits assumed)
T1 construct: Coated on the ELISA plate at 1 ug/mL; also called TNFSF15
T1 sequence (looked up): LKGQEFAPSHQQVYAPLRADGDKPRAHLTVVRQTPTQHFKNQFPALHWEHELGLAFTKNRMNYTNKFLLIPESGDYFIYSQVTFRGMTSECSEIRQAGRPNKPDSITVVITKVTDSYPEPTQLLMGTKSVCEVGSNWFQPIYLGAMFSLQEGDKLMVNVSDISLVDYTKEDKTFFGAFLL
Assay: ELISA titration, coated human TL1A, culture supernatant

B1: A148 (antibody, human IgG1, V domains shown)
VH: QVQLVQSGAEVKKPGASVKVSCKASGFDIQDTYMHWVRQAPGQGLEWMGRIEPASGHIKYDPKFQVRVTMTRDTSTSTVYMELSSLRSEDTAVYYCARSGGLPDWWGQGTTVTVSS
VL: EIVLTQSPGTLSLSPGERATLSCRASSSVSYMYWYQQKPGQAPRPLIYATSNLASGIPDRFSGSGSGTDFTLTISRLEPEDFAVYYCQQWEGNPRTFGGGTKLEIK
notes: human IgG1/kappa (pFuse vectors), culture supernatant
Q: With B1 as the binder, how does the Kd read?
A: The Kd was 0.046 nM.

B2: A32 (antibody, V domains shown)
VH: DVQLVQSGAEVKKPGASVKVSCKASGFDIQDTYMHWVRQAPGQGLEWMGRIEPASGHIKYDPKFQGRVTMTRDTSTSTVYMELSSLRSEDTAVYYCARSGGLPDWWGQGTTVTVSS
VL: EIVLTQSPGTLSLSPGERATLSCRASSSVSYMYWYQQKPGQAPRPWIYATSNLASGIPDRFSGSGSGTDFTLTISRLEPEDFAVYYCQQWEGNPRTFGGGTKLEIK
Q: Which Kd does the source give for B2 here?
A: The Kd was 0.111 nM.

B3: A31 (antibody, human IgG1, V domains shown)
VH: QVQLVQSGAEVKKPGASVKVSCKASGFDIQDTYMHWVRQAPGQGLEWMGRIEPASGHIKYDPKFQGRVTMTRDTSTSTVYMELSSLRSEDTAVYYCARSGGLPDWWGQGTTVTVSS
VL: EIVLTQSPGTLSLSPGERATLSCRASSSVSYMYWYQQKPGQAPRPWIYATSNLASGIPDRFSGSGSGTDFTLTISRLEPEDFAVYYCQQWEGNPRTFGGGTKLEIK
notes: as for B1
Q: B3 was tested. Which Kd did it give?
A: The Kd was 0.092 nM.

B4: A68 (antibody, human IgG1, V domains shown)
VH: QVQLVQSGAEVKKPGASVKVSCKASGFDIQDTYMHWVRQAPGQGLEWMGRIEPASGHIKYDPKFQVRVTITRDTSTSTVYMELSSLRSEDTAVYYCARSGGLPDWWGQGTTVTVSS
VL: EIVLTQSPGTLSLSPGERATLSCRASSSVSYMYWYQQKPGQAPRLLIYATSNLASGIPDRFSGSGSGTDFTLTISRLEPEDFAVYYCQQWEGNPRTFGGGTKLEIK
notes: as for B1
Q: For B4, which Kd is on record?
A: The Kd was 0.074 nM.

B5: A60 (antibody, human IgG1, V domains shown)
VH: QVQLVQSGAEVKKPGASVKVSCKASGFDIQDTYMHWVRQAPGQGLEWMGRIDPASGHIKYDPKFQGRVTMTRDTSTSTVYMELSSLRSEDTAVYYCARSGGLPDWWGQGTTVTVSS
VL: EIVLTQSPGTLSLSPGERATLSCRASSSVSYMYWYQQKPGQAPRLLIYATSNLASGIPDRFSGSGSGTDFTLTISRLEPEDFAVYYCQQWEGNPRTFGGGTKLEIK
notes: as for B1
Q: How did the Kd turn out when B5 was run?
A: The Kd was 0.168 nM.

B6: A69 (antibody, human IgG1, V domains shown)
VH: EVQLVQSGAEVKKPGASVKVSCKASGFDIQDTYMHWVRQAPGQGLEWMGRIEPASGHIKYDPKFQGRVTMTRDTSTSTVYMELSSLRSEDTAVYYCARSGGLPDWWGQGTTVTVSS
VL: EIVLTQSPGTLSLSPGERATLSCRASSSVSYMYWYQQKPGQAPRLLIYATSNLASGIPDRFSGSGSGTDFTLTISRLEPEDFAVYYCQQWEGNPRTFGGGTKLEIK
notes: as for B1
Q: Which Kd does the source give for B6 here?
A: Its Kd is 0.136 nM.

B7: A65 (antibody, human IgG1, V domains shown)
VH: QVQLVQSGAEVKKPGASVKVSCKASGFDIQDTYMHWVRQAPGQGLEWMGRIEPASGHIKYDPKFQGRATMTRDTSTSTVYMELSSLRSEDTAVYYCARSGGLPDWWGQGTTVTVSS
VL: EIVLTQSPGTLSLSPGERATLSCRASSSVSYMYWYQQKPGQAPRLLIYATSNLASGIPDRFSGSGSGTDFTLTISRLEPEDFAVYYCQQWEGNPRTFGGGTKLEIK
notes: as for B1
Q: For B7, which Kd is on record?
A: The Kd was 0.097 nM.

B8: A64 (antibody, human IgG1, V domains shown)
VH: QVQLVQSGAEVKKPGASVKVSCKASGFDIQDTYMHWVRQAPGQGLEWMGRIEPASGHIKYDPKFQVRVTMTRDTSTSTVYMELSSLRSEDTAVYYCARSGGLPDWWGQGTTVTVSS
VL: EIVLTQSPGTLSLSPGERATLSCRASSSVSYMYWYQQKPGQAPRLLIYATSNLASGIPDRFSGSGSGTDFTLTISRLEPEDFAVYYCQQWEGNPRTFGGGTKLEIK
notes: as for B1
Q: With B8 as the binder, how does the Kd read?
A: Its Kd is 0.09 nM.

B9: A63 (antibody, human IgG1, V domains shown)
VH: QVQLVQSGAEVKKPGASVKVSCKASGFDIQDTYMHWVRQAPGQGLEWMGRIEPASGHVKYDPKFQGRVTMTRDTSTSTVYMELSSLRSEDTAVYYCARSGGLPDWWGQGTTVTVSS
VL: EIVLTQSPGTLSLSPGERATLSCRASSSVSYMYWYQQKPGQAPRLLIYATSNLASGIPDRFSGSGSGTDFTLTISRLEPEDFAVYYCQQWEGNPRTFGGGTKLEIK
notes: as for B1
Q: B9 was tested. Which Kd did it give?
A: The Kd was 0.132 nM.

B10: A59 (antibody, human IgG1, V domains shown)
VH: QVQLVQSGAEVKKPGASVKVSCKASGFDIQDTYMHWVKQRPGQGLEWMGRIEPASGHIKYDPKFQGRVTMTRDTSTSTVYMELSSLRSEDTAVYYCARSGGLPDWWGQGTTVTVSS
VL: EIVLTQSPGTLSLSPGERATLSCRASSSVSYMYWYQQKPGQAPRLLIYATSNLASGIPDRFSGSGSGTDFTLTISRLEPEDFAVYYCQQWEGNPRTFGGGTKLEIK
notes: as for B1
Q: B10 was tested. Which Kd did it give?
A: Its Kd is 0.136 nM.

B11: A58 (antibody, human IgG1, V domains shown)
VH: QVQLVQSGAEVKKPGASVKVSCKASGFDIQDTYMHWVKQAPGQGLEWMGRIEPASGHIKYDPKFQGRVTMTRDTSTSTVYMELSSLRSEDTAVYYCARSGGLPDWWGQGTTVTVSS
VL: EIVLTQSPGTLSLSPGERATLSCRASSSVSYMYWYQQKPGQAPRLLIYATSNLASGIPDRFSGSGSGTDFTLTISRLEPEDFAVYYCQQWEGNPRTFGGGTKLEIK
notes: as for B1
Q: How did the Kd turn out when B11 was run?
A: The Kd was 0.112 nM.

B12: A71 (antibody, human IgG1, V domains shown)
VH: QVQLVQSGAEVKKPGASVKVSCKASGFDIQDTYMHWVRQAPGQGLEWMGRIEPASGHIKYDPKFQGRVTITTDTSTSTVYMELSSLRSEDTAVYYCARSGGLPDWWGQGTTVTVSS
VL: EIVLTQSPGTLSLSPGERATLSCRASSSVSYMYWYQQKPGQAPRLLIYATSNLASGIPDRFSGSGSGTDFTLTISRLEPEDFAVYYCQQWEGNPRTFGGGTKLEIK
notes: as for B1
Q: How did the Kd turn out when B12 was run?
A: Its Kd is 0.15 nM.

B13: A72 (antibody, human IgG1, V domains shown)
VH: QVQLVQSGAEVKKPGASVKVSCKASGFDIQDTYMHWVRQAPGQGLEWMGRIEPASGHIKYDPKFQGRATITTDTSTSTVYMELSSLRSEDTAVYYCARSGGLPDWWGQGTTVTVSS
VL: EIVLTQSPGTLSLSPGERATLSCRASSSVSYMYWYQQKPGQAPRLLIYATSNLASGIPDRFSGSGSGTDFTLTISRLEPEDFAVYYCQQWEGNPRTFGGGTKLEIK
notes: as for B1
Q: B13 was tested. Which Kd did it give?
A: The Kd was 0.159 nM.

B14: A61 (antibody, human IgG1, V domains shown)
VH: QVQLVQSGAEVKKPGASVKVSCKASGFDIQDTYMHWVRQAPGQGLEWIGRIEPASGHIKYDPKFQGRVTMTRDTSTSTVYMELSSLRSEDTAVYYCARSGGLPDWWGQGTTVTVSS
VL: EIVLTQSPGTLSLSPGERATLSCRASSSVSYMYWYQQKPGQAPRLLIYATSNLASGIPDRFSGSGSGTDFTLTISRLEPEDFAVYYCQQWEGNPRTFGGGTKLEIK
notes: as for B1
Q: With B14 as the binder, how does the Kd read?
A: The Kd was 0.127 nM.

B15: A67 (antibody, human IgG1, V domains shown)
VH: QVQLVQSGAEVKKPGASVKVSCKASGFDIQDTYMHWVRQAPGQGLEWMGRIEPASGHIKYDPKFQVRATMTRDTSTSTVYMELSSLRSEDTAVYYCARSGGLPDWWGQGTTVTVSS
VL: EIVLTQSPGTLSLSPGERATLSCRASSSVSYMYWYQQKPGQAPRLLIYATSNLASGIPDRFSGSGSGTDFTLTISRLEPEDFAVYYCQQWEGNPRTFGGGTKLEIK
notes: as for B1
Q: With B15 as the binder, how does the Kd read?
A: The Kd was 0.089 nM.

B16: A66 (antibody, human IgG1, V domains shown)
VH: QVQLVQSGAEVKKPGASVKVSCKASGFDIQDTYMHWVRQAPGQGLEWMGRIEPASGHIKYDPKFQGRVTITRDTSTSTVYMELSSLRSEDTAVYYCARSGGLPDWWGQGTTVTVSS
VL: EIVLTQSPGTLSLSPGERATLSCRASSSVSYMYWYQQKPGQAPRLLIYATSNLASGIPDRFSGSGSGTDFTLTISRLEPEDFAVYYCQQWEGNPRTFGGGTKLEIK
notes: as for B1
Q: B16 was tested. Which Kd did it give?
A: Its Kd is 0.15 nM.

B17: A73 (antibody, human IgG1, V domains shown)
VH: QVQLVQSGAEVKKPGASVKVSCKASGFDIQDTYMHWVRQAPGQGLEWMGRIEPASGHIKYDPKFQGRVTMTTDTSTSTVYMELSSLRSEDTAVYYCARSGGLPDWWGQGTTVTVSS
VL: EIVLTQSPGTLSLSPGERATLSCRASSSVSYMYWYQQKPGQAPRPWIYATSNLASGIPDRFSGSGSGTDFTLTISRLEPEDFAVYYCQQWEGNPRTFGGGTKLEIK
notes: as for B1
Q: How did the Kd turn out when B17 was run?
A: Its Kd is 0.128 nM.

B18: A29 (antibody, human IgG1, V domains shown)
VH: QVQLVQSGAEVKKPGASVKVSCKASGFDIQDTYMHWVKQRPGQGLEWIGRIDPASGHTKYDPKFQVRATITTDTSTSTAYLELSSLRSEDTAVYYCARSGGLPDVWGQGTTVTVSS
VL: EIVLTQSPGTLSLSPGERATLSCRASSSVSYMYWYQQKPGQAPRPWIYATSNLASGIPDRFSGSGSGTDFTLTISRLEPEDFAVYYCQQWEGNPRTFGGGTKLEIK
notes: as for B1
Q: How did the Kd turn out when B18 was run?
A: Its Kd is 0.065 nM.

B19: A57 (antibody, human IgG1, V domains shown)
VH: QVQLVQSGAEVKKPGASVKVSCKASGFDIQDTYMHWVRQRPGQGLEWMGRIEPASGHIKYDPKFQGRVTMTRDTSTSTVYMELSSLRSEDTAVYYCARSGGLPDWWGQGTTVTVSS
VL: EIVLTQSPGTLSLSPGERATLSCRASSSVSYMYWYQQKPGQAPRLLIYATSNLASGIPDRFSGSGSGTDFTLTISRLEPEDFAVYYCQQWEGNPRTFGGGTKLEIK
notes: as for B1
Q: For B19, which Kd is on record?
A: The Kd was 0.191 nM.

B20: A62 (antibody, human IgG1, V domains shown)
VH: QVQLVQSGAEVKKPGASVKVSCKASGFDIQDTYMHWVRQAPGQGLEWIGRIDPASGHIKYDPKFQGRVTMTRDTSTSTVYMELSSLRSEDTAVYYCARSGGLPDWWGQGTTVTVSS
VL: EIVLTQSPGTLSLSPGERATLSCRASSSVSYMYWYQQKPGQAPRLLIYATSNLASGIPDRFSGSGSGTDFTLTISRLEPEDFAVYYCQQWEGNPRTFGGGTKLEIK
notes: as for B1
Q: For B20, which Kd is on record?
A: The Kd was 0.15 nM.

B21: A70 (antibody, human IgG1, V domains shown)
VH: QVQLVQSGAEVKKPGASVKVSCKASGFDIQDTYMHWVRQAPGQGLEWMGRIEPASGHIKYDPKFQGRVTMTTDTSTSTVYMELSSLRSEDTAVYYCARSGGLPDWWGQGTTVTVSS
VL: EIVLTQSPGTLSLSPGERATLSCRASSSVSYMYWYQQKPGQAPRLLIYATSNLASGIPDRFSGSGSGTDFTLTISRLEPEDFAVYYCQQWEGNPRTFGGGTKLEIK
notes: as for B1
Q: With B21 as the binder, how does the Kd read?
A: Its Kd is 0.149 nM.

B22: A33 (antibody, V domains shown)
VH: DVQLVQSGAEVKKPGASVKVSCKASGFDIQDTYMHWVRQAPGQGLEWMGRIEPASGHIKYDPKFQGRVTMTRDTSTSTVYMELSSLRSEDTAVYYCARSGGLPDWWGQGTTVTVSS
VL: EIVLTQSPGTLSLSPGERATLSCRASSSVSYMYWYQQKPGQAPRLLIYATSNLASGIPDRFSGSGSGTDFTLTISRLEPEDFAVYYCQQWEGNPRTFGGGTKLEIK
Q: For B22, which Kd is on record?
A: The Kd was 0.081 nM.
